The values that follow come from patent US10117953B2, “Antibody drug conjugates” (Novartis AG, priority 2013, dated 2018).

One assay deals with Uke-1 cells. Nature of the assay: ADCC activity in vitro (Calcein release, NK3.3 effector cells). It counts as cell-based, human. As to conditions: effector to target ratio 20 to 1. The protocol:
In brief, Uke-1 cells were stained with Calcein acetoxy-methyl ester (Calcein-AM; Sigma-Aldrich catalog #17783-5MG, St. Louis, Mo.), washed twice, pipetted into a 96-well microtiterplate (96 well, U-bottomed, clear plastic; Corning Costar, catalog #650 160, Tewksbury, Mass.) at a concentration of 5000 cells per well and pre-incubated for 10 min with a serial dilution of the above mentioned antibodies and proteins (from 50,000 to 0.003 μg per ml) before adding the effector NK3.3 cells for 1 hour in an effector to target ratio of 20 to 1. In order to calculate the antibody specific lysis of the target cells, a parallel incubation of target cells only without antibody or effector cells served as a baseline and negative control, whereas the positive control or maximal lysis or hundred percent specific lysis was determined by lysis of target cells only with a 1% Triton-X 100 solution. […] Following a co-incubation of target and effector cells, the microtiterplate was centrifuged and an aliquot of the supernatant fluid was transferred to another microtiterplate (96 well, flat-bottomed, black with clear bottom; Corning Costar, catalog #3904, Tewksbury, Mass.) and the concentration of free Calcein in solution was determined with a fluorescence counter (Victor 3® multilabel counter, Perkin Elmer, Waltham, Mass.).

Assay [1] has as its target T1, cKit receptor on normal human CD34+ bone marrow cells (Homo sapiens, UniProt P10721).
T1 construct: host or cells: normal human CD34+ bone marrow cells (primary)
Briefly: cKit receptor levels on bone marrow cells by flow cytometry. It counts as cell-based. As to conditions: 10 μg/ml. The protocol:
In another internalization experiment, the impact of NEG085 on cKit receptor levels was evaluated on human bone marrow cells. Normal human CD34+ bone marrow cells (All Cells, Cat #ABM022F, Emeryville, Calif.) were thawed and washed with 10 mL of StemPro0-34 SFM medium (Gibco, Life Technologies, Carlsbad, Calif.). Cells were resuspended in 1.25 mL of StemPro-34 SFM medium at 4×10^5 cells/mL and split equally into two tubes. […] 100 μL of cell suspension was collected at each timepoint (0, 15, 30, 60, 120, and 240 min) from each condition, and placed into an ice cold collection tube to cease internalization. Cells were washed with 3 mL of ice-cold FBS stain buffer and resuspended in 100 μL of FBS stain buffer. […] of 104D2-BV421 (mouse anti-human IgG1 k, Biolegend) was added to each tube and incubated on ice for 1 hour. Following another wash with FBS stain buffer, total cKit receptors were measured by flow cytometry by assessing the mean fluorescence intensity of BV421 on a FACS Canto II® (BD Biosciences, San Jose, Calif.).

For assay [2], the system named is surface cKIT on GIST-T1 cells. Briefly: Ab-mediated internalization of surface cKIT by flow cytometry. It counts as cell-based, human. Particulars: 10 ug/ml, 30 min to 24 hr at 37° C. The protocol: The kinetics of cKIT antibody mediated internalization was evaluated by treating with antibody in a cell monolayer using a temperature shift method and flow cytometry readout. GIST-T1 (kindly provided by Dr. Takahiro Taguchi, Kochi U., Japan) cells were seeded at 2.5×10E5 cells/well in five 12-well tissue culture treated plates (BD Falcon 353043). The cells were incubated in a tissue culture incubator at 37° C. with 5% CO2 overnight. The following day medium was removed and replaced with 450 ul fresh medium. […] All cells were incubated for 1 hr on ice, followed by two washes with 1 mL 1× Phosphate buffered saline (PBS) and resuspended in 500 μl cell culture medium. Plates #2-5 were transferred to 37° C. and harvested at time points; 30 min, 2 hr, 4 hr and 24 hr at 37° C. with 5% CO2. 100 μl of cell dissociation buffer (Gibco Cat#13150-016, Life Technologies, Carlsbad, Calif.) was added to plate#1 (4° C. binding control) and incubated at 37° C. until cells were detached. […] The following day, all samples were analyzed using the BD FACSCanto II® equipment using a HTS system (BD Biosciences, San Jose, Calif.). Samples were analyzed with FlowJo software to obtain the Geometric Mean values of fluorescence for the Phyeoerythrin channel, FIG. 13A is a plot of % of initial cell surface binding vs […] at 37° C.×100.
On the technique in general: A flow cytometer gives signals particle by particle.

The next assay addresses T2, human cKIT ECD (Homo sapiens, UniProt P10721).
T2 construct: Human cKIT tr. variant 2 , residues 26-520-TAG; His6 (C); made in house; host or cells: HEK293 derived cell lines (293FS), transient transfection
Briefly: SPR (Biacore 2000) affinity measurement. It counts as binding. As to conditions: Table 5. The protocol: Affinity of the antibodies to cKIT species orthologues and also to cKIT was determined using SPR technology using a Biacore® 2000 instrument (GE Healthcare, Pittsburgh, Pa.) and with CM5 sensor chips.
Briefly, HBS-P (0.01 M HEPES, pH 7.4, 0.15 M NaCl, 0.005% Surfactant P20) supplemented with 2% Odyssey® blocking buffer (Li-Cor Biosciences, Lincoln, Nebr.) was used as the running buffer for all the experiments. The immobilization level and analyte interactions were measured by response unit (RU). Pilot experiments were performed to test and confirm the feasibility of the immobilization of the anti-human Fc antibody (Catalog number BR100839, GE Healthcare, Pittsburgh, Pa.) and the capture of the test antibodies.
For kinetic measurements, the experiments were performed in which the antibodies were captured to the sensor chip surface via the immobilized anti-human Fc antibody and the ability of the cKIT proteins to bind in free solution was determined. Briefly, 25 μg/ml of anti-human Fc antibody at pH 5 was immobilized on a CM5 sensor chip through amine coupling at flow rate of 5 μl/minute on all two flow cells to reach 10,500 RUs. 0.1-1 μg/ml of test antibodies were then injected at 10 μl/min for 1 minute. Captured levels of the antibodies were generally kept below 200 RUs. […]

T1 sequence (P10721 26-976): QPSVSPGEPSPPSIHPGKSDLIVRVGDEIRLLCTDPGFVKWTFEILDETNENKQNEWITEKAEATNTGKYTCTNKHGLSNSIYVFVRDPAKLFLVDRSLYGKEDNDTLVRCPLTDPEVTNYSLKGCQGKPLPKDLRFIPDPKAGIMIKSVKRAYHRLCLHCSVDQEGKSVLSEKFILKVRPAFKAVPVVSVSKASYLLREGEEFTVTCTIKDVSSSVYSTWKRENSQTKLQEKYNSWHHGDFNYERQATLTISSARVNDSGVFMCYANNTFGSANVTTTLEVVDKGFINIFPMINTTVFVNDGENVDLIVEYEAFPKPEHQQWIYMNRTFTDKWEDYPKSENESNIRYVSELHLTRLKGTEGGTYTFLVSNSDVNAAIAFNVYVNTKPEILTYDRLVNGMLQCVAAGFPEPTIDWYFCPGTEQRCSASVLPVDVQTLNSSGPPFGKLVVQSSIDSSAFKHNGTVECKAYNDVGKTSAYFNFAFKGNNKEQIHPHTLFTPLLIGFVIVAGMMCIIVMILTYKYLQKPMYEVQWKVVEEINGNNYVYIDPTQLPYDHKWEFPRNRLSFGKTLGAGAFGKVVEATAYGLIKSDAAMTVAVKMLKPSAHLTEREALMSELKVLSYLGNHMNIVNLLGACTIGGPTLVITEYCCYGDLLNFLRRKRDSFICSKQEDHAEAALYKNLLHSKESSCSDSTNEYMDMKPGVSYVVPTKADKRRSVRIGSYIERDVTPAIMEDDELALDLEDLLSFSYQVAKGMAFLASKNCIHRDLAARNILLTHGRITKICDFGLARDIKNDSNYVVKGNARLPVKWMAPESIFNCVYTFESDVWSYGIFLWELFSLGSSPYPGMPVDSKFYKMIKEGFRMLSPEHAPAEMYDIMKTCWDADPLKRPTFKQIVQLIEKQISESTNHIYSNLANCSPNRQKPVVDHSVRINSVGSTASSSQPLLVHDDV
Chain of surface cKIT on GIST-T1 cells (P10721 26-509 limits assumed): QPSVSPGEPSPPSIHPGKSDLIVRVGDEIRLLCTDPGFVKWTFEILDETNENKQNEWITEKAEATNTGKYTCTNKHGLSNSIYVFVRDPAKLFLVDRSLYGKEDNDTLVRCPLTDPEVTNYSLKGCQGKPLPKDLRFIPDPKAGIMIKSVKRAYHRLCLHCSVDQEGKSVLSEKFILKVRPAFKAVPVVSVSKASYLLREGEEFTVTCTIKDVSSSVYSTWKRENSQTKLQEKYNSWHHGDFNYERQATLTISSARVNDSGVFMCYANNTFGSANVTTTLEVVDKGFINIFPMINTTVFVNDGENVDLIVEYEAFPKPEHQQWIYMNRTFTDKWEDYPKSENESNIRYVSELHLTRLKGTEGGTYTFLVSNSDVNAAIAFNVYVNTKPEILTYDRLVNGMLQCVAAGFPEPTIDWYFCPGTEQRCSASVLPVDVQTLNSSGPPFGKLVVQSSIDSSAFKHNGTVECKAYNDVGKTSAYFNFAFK
T2 sequence (P10721 26-520 isoform P10721-2): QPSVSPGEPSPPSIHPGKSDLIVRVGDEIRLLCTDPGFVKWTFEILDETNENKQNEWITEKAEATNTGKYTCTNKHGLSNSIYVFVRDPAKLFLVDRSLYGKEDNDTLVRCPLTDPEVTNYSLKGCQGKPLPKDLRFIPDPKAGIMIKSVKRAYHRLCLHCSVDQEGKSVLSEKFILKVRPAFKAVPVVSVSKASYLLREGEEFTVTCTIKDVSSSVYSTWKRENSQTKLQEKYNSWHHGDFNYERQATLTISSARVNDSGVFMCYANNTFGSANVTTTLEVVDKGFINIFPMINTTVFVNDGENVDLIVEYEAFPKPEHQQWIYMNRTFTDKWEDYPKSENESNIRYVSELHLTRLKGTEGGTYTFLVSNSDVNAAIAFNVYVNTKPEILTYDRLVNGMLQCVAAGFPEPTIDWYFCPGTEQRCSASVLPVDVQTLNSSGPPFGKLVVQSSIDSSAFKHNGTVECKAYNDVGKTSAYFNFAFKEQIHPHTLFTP

B1: NEG085: anti-cKIT antibody of Table 1; VH SEQ ID NO 82, VL SEQ ID NO 91; derived from 9P3 (antibody, V domains shown)
VH: EVQLVESGGGLVQPGGSLRLSCAASGFAFSGYYMAWVRQAPGKGLEWVANINYPGSSTYYLDSVKGRFTISRDNAKNSLYLQMNSLRAEDTAVYYCARGDYYGTTYWYFDVWGQGTTVTVSS
VL: DIQMTQSPSSLSASVGDRVTITCRASQSISSYLNWYQQKPGKAPKLLIYYTSRLQSGVPSRFSGSGSGTDFTLTISSLQPEDFATYYCQQGRRLWSFGGGTKVEIK
Turning to B1, the ADCC result with Uke-1 cells is on record as “not able to induce ADCC even at higher concentrations”. Also, the “time of the bulk of the internalization” value in assay [1] amounted to 15 min. In addition, in assay [1] (0-240 min), the cKIT internalization result was “rapidly internalized”. Besides, the “internalization after binding cKIT on the cell surface” value in assay [2] is given as “rapidly internalized into the cell”. Besides, the “reaction with human cKIT” value with human cKIT ECD is recorded as “nanomolar level”.
